Earlier results on one substance are cited in PMC5605561.

The data set addresses B2R (Homo sapiens) (UniProt P30411).
UniProt P30411, sequence (P30411 whole entry): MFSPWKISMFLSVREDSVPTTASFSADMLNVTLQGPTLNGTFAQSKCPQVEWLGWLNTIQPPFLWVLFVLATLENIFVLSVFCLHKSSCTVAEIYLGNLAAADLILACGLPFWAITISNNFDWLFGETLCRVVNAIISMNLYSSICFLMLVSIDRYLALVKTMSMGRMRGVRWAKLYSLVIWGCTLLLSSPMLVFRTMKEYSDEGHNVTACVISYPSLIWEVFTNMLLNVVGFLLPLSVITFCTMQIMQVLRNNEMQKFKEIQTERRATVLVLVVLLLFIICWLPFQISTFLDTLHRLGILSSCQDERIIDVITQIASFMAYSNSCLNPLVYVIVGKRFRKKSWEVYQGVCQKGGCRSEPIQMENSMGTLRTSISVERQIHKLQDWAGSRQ

As to “bradykinin bradykinin (from UniProt P01042)”, the Kd is 10 nM.

Broadly, the Kd is the constant that tells how readily two partners part at equilibrium.
